The values below come from paper doi:10.1101/2022.01.06.475303.

For the test, the target named is SARS-CoV-2 receptor binding domain (RBD), Wuhan-1 (SARS-CoV-2 Wuhan-Hu-1) (UniProt P0DTC2).

With CC6.33 IgG (antibody), the neutralization IC50 against pseudotyped SARS-CoV-2 (Hela-hACE2 cells) worked out at 0.228 mg/L.
